Assay results taken from paper PMC5500849, “Cobamide-mediated enzymatic reductive dehalogenation via long-range electron transfer” (Nature Communications, 2017).

Experiments:
purified protein [1] = substrate: Oc1ccc(Br)cc1; assay: purified protein; conditions: reduced methyl viologen 0.5 mM / Ti(III) citrate 1.4 mM, 100 mM Tris-HCl pH 7.5, 22 °C, no NH4+, kcat at Table 1
purified protein [2] = substrate: Oc1ccc(Br)cc1Br; assay: purified protein; conditions: reduced methyl viologen 0.5 mM / Ti(III) citrate 1.4 mM, 100 mM Tris-HCl pH 7.5, 22 °C, no NH4+, kcat at Table 1, kcat includes further reduction to phenol

B1: PceA (PceA–Strep) (Sulfurospirillum multivorans) (protein)
chain: AEKEKNAAEIRQQFAMTAGSPIIVNDKLERYAEVRTAFTHPTSFFKPNYKGEVKPWFLSAYDEKVRQIENGENGPKMKAKNVGEARAGRALEAAGWTLDINYGNIYPNRFFMLWSGETMTNTQLWAPVGLDRRPPDTTDPVELTNYVKFAARMAGADLVGVARLNRNWVYSEAVTIPADVPYEQSLHKEIEKPIVFKDVPLPIETDDELIIPNTCENVIVAGIAMNREMMQTAPNSMACATTAFCYSRMCMFDMWLCQFIRYMGYYAIPSCNGVGQSVAFAVEAGLGQASRMGACITPEFGPNVRLTKVFTNMPLVPDKPIDFGVTEFCETCKKCARECPSKAITEGPRTFEGRSIHNQSGKLQWQNDYNKCLGYWPESGGYCGVCVAVCPFTKGNIWIHDGVEWLIDNTRFLDPLMLGMDDALGYGAKRNITEVWDGKINTYGLDADHFRDTVSFRKDRVKKS
- Km (purified protein [1]): 99 µM
- kcat (purified protein [1]): 809 s⁻¹
- Km (purified protein [2]): 95 µM
- kcat (purified protein [2]): 252 s⁻¹
